Key:
BLMcore P868L [1] = target: T1, BLMcore P868L (Homo sapiens, UniProt P54132 636-1298, P868L); assay: EMSA; 5 mM MgCl2; distinct shift; estimated apparent KD; 50 mM Tris-HCl pH 7.5, 50 mM KCl, 5 mM MgCl2, 1 mM DTT, 0.1 mg/mL BSA, 40 nM DNA, 30 min room temperature; 5% gel in TBE + 100 mM KCl at 4 C; settings: protein: recombinant; (HisTrap purified); label: 3'-FAM on oAV320 (strand 2); 18 bp duplex, 3' overhang 39 nt on strand 1
BLMcore G1120R [2] = target: T2, BLMcore G1120R (Homo sapiens, UniProt P54132 636-1298, G1120R); assay: as above; settings: protein: recombinant; (HisTrap purified); label: 3'-FAM on oAV320 (strand 2); 18 bp duplex, 3' overhang 39 nt on strand 1
BLMcore P868L [3] = target: T1, BLMcore P868L; assay: EMSA; 5 mM MgCl2; smear; estimated apparent KD; 50 mM Tris-HCl pH 7.5, 50 mM KCl, 5 mM MgCl2, 1 mM DTT, 0.1 mg/mL BSA, 40 nM DNA, 30 min room temperature; 5% gel in TBE + 100 mM KCl at 4 C; settings: protein: recombinant, (HisTrap purified)
BLMcore K869A K870A = BLMcore K869A K870A (Homo sapiens, UniProt P54132 636-1298, K869A;K870A); assay: as above; settings: protein: recombinant, (HisTrap purified)
BLMcore G1120R [4] = target: T2, BLMcore G1120R; assay: as above; settings: protein: recombinant, (HisTrap purified)
[5] = label: 3'-FAM, intramolecular G4 (folded in 100 mM KCl) with 3' T-rich ssDNA tail

T1 sequence (P54132 636-1298 P868L): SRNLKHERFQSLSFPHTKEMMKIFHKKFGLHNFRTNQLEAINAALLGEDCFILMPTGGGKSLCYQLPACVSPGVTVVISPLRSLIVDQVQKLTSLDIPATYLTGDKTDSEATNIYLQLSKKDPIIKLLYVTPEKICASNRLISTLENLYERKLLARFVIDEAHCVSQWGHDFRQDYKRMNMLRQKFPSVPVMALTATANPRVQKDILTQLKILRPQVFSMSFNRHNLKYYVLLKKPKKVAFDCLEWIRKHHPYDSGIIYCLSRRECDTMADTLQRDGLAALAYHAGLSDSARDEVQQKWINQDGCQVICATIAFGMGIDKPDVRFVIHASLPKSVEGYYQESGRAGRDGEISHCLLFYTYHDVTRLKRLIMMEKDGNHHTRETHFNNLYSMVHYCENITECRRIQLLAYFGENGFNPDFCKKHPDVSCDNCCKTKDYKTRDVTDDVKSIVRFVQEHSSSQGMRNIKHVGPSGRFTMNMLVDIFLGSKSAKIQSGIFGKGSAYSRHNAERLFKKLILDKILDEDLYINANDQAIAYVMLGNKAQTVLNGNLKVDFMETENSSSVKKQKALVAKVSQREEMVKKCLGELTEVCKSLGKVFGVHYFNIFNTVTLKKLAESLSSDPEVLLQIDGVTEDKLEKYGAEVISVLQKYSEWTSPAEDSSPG
T2 sequence (P54132 636-1298 G1120R): as the sequence (P54132 636-1298 P868L) above, with L233P, G485R counted along it
BLMcore K869A K870A, sequence (P54132 636-1298 K869A/K870A): as the sequence (P54132 636-1298 P868L) above, with L233P, K234A, K235A counted along it

B1: partial dsDNA with 3' ssDNA overhang (oRC32/FAM-oAV320) (dsDNA)
DNA 1: TGGCGACGGCAGCGAGGCTTAGGGTTAGCGTTAGCGTTAGGGTTTTTTTTTTTTTTT
DNA 2: GCCTCGCTGCCGTCGCCA
Which Kd (BLMcore P868L [1]) does the source give for B1 here?
The Kd was about 62.5 nM.

And the Kd (BLMcore G1120R [2])?
Its Kd is about 62.5 nM.

B2: FAM-dT30 (ssDNA) (ssDNA)
DNA: TTTTTTTTTTTTTTTTTTTTTTTTTTTTTT
What does the source list for B2?
Kd (BLMcore P868L [3]; single strand): ~62.5 nM; Kd (BLMcore K869A K870A; single strand): ~312 nM; Kd (BLMcore G1120R [4]; single strand): ~62.5 nM

B3: G4 DNA with 3' ssDNA overhang (FAM-oRC96) (structured_DNA)
DNA: GGGTTAGGGTTAGGGTTAGGGTTTTTTTTTT
For B3, which Kd (BLMcore P868L [3]; [5]) is on record?
The Kd was about 125 nM.

And the Kd (BLMcore K869A K870A; [5])?
Its Kd is about 625 nM.

And the Kd (BLMcore G1120R [4]; [5])?
The Kd was about 250 nM.
